Test results reported in patent US20230295293A1, “BINDING MOLECULES AGAINST FRa” (AstraZeneca AB, priority 2022, published 2023).
Numbering of substitutions follows the chain as printed.

B1: AB1370026 (hybridoma IgG) (antibody, V domains shown)
VH: EVQLVESGGGLVKPGGSLRLSCAASGFTFSSYAMSWVRQAPGKGLEWVSSISSGRSYIYYADSVKGRFTISRDNAKNSLYLKMNSLRDEDTAVYYCAREMQQLALDYWGQGTLVTVSS
VL: DIQMTQSPSSLSASVGDRVTITCRASQGISNFLAWFQQAPGKAPKSLIYAASSLQSGVPSKFSGSGSGTDFTLTISSLQPEDFATYYCQQYNSYPFTFGQGTKLEIK
B2: AB1370083 (hybridoma IgG) (antibody, V domains shown)
VH: EVQLVESGGGLVKPGGSLRLSCAASGFTFSSYNMNWVRQAPGKGLEWVSSISSGSSYIYYADSMKGRFTISRDNAKNSLFLQMNSLRAEDTAVYYCARGMTTLTFDYWGQGTLVTVSS
VL: B1 VL with N31T, A39K, G68E, N92I, F96L, Q100G, L104V
B3: AB1370095 (hybridoma IgG) (antibody, V domains shown)
VH: B2 VH with N33S, G54R, I58V, M64V, F80Y
VL: B1 VL with N31S, A39K, F96L, Q100G, L104V
B4: AB1370035 (hybridoma IgG) (antibody, V domains shown)
VH: QVQLQQSGPGLVKPSQTLSLTCAISGDSVSSNSAAWNWIRQSPSRGLEWLGRTYYRSNWYNDYTLSVKSRITVNPDTSKNQFSLQLNSVTPEDTAVYYCVRGVGRFDSWGQGTLVTVSS
VL: DIQMTQSPSTLSASVGDRVIITCRASQSISSWLAWYQQKPGKAPKLLIYKASSLESGVPSRFSGSGSGTEFTLTITSLQPDDFASYYCQEYKTYSIFTFGPGTKVDIK

Experiments:
[1] = molecular target: Human FRα ECD-Avi-His (human); test: HTRF antigen binding assay; hybridoma supernatant at 25%, 1 nM biotinylated antigen
Sequence of Human FRα ECD-Avi-His (human) (chain, as listed by the source limits assumed): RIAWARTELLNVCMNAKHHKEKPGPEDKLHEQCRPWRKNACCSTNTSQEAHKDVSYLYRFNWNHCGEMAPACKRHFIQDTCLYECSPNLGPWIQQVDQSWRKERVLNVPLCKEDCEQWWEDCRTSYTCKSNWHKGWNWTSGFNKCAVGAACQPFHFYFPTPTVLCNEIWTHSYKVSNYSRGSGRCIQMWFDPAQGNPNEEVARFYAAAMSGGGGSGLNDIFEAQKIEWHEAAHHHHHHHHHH

[2] = molecular target: Cyno FRα ECD-Avi-His (cynomolgus monkey); test: as above
Sequence of Cyno FRα ECD-Avi-His (cynomolgus monkey) (chain, as listed by the source limits assumed): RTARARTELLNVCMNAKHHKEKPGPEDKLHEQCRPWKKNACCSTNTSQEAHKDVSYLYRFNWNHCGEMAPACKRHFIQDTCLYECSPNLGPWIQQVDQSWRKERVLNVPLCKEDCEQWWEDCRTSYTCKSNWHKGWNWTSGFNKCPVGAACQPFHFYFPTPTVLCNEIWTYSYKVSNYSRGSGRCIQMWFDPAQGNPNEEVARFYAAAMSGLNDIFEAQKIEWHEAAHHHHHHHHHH

| Binder | % Delta F [1] | % Delta F [2] |
| --- | --- | --- |
| B1 | 271 % Delta F | 214 % Delta F |
| B2 | 140 % Delta F | 85.2 % Delta F |
| B3 | 126 % Delta F | 85.3 % Delta F |
| B4 | 225 % Delta F | 141 % Delta F |
